Several values for one entry are separate records, joined by “and”; a condition that tells them apart may be missing. Equal entries are not always repeated. Where two headings read alike, the source gives them in different places.
Key:
[1] = target: T1, module 5+TE (Saccharopolyspora erythraea, UniProt Q03133); conditions: diffusive loading, shown earlier; cited from earlier work
T1 construct: a single module of the DEBS PKS fused to the thioesterase (TE) termination region of module 6; thioesterase (TE) domain of DEBS (end of the same DEBS3 polypeptide); made in house; host or cells: E. coli BL21(DE3) co-expressing B. subtilis sfp

[2] = system: (5)M2+TE, (5)M5+TE, and (5)M6+TE; conditions: Wu et al. 2000; cited from earlier work
[3] = target: T2, (3)M3+TE (Saccharopolyspora erythraea, UniProt Q03132+Q03133); conditions: previously shown; cited from earlier work
T2 construct: encodes module 3 of DEBS (M3) with its own N-terminal linker and with the thioesterase fused to the C-terminus; natural N-terminal interpolypeptide linker of module 3 (start of DEBS2, ahead of the Module 3 feature); His6 (C); made in house; host or cells: E. coli BL21(DE3) co-expressing B. subtilis sfp

[4] = target: T3, (5)M3+TE (Saccharopolyspora erythraea, UniProt Q03132+Q03133); conditions: previously shown; cited from earlier work
T3 construct: (5)M3+TE: module 3 with N-terminal linker from module 5; N-terminal interpolypeptide linker of DEBS module 5 (start of DEBS3, Q03133); His6 (C); made in house; host or cells: E. coli BL21(DE3) co-expressing B. subtilis sfp

[5] = target: T4, M3+TE (Saccharopolyspora erythraea, UniProt Q03132+Q03133); conditions: cited from earlier work
T4 construct: encodes module 3 of DEBS (M3) with its own N-terminal linker and with the thioesterase fused to the C-terminus; natural N-terminal interpolypeptide linker of module 3 (start of DEBS2, ahead of the Module 3 feature); His6 (C); made in house; host or cells: E. coli BL21(DE3) co-expressing B. subtilis sfp

[6] = Kinetic constants kcat and KM for converting diketide to triketide (cell-free system); type: biochemical
Protocol: (§1) A cell-free system, tested for the ability to convert the cysteamine thioester of 2S,3R-2-methyl-3-hydroxypentanoic acid (compound 2 in FIG. 2), consisted of 0.5-10 mM concentration of the thioester, 2.5 mM ^14C-labeled methylmalonyl CoA and 100 pmoles of purified protein prepared in Example 1 in a 100 μl reaction. In some cases, 1 mM of NADPH was added; this was done in assay mixtures containing (M2+TE), (M5+TE) and (M6+TE) proteins. The protein was, in each case, a single module of the DEBS PKS fused to the thioesterase (TE) termination region of module 6.
(§2) The reaction mixtures were quenched and extracted by ethyl acetate and separated by thin-layer chromatography (TLC) to discern the formation of the triketide ketolactone 3 and triketide lactone 4 (both shown in FIG. 2) after 30 minutes.
The various constructs which are successful in converting diketide to triketide were then evaluated for the kinetic constants kcat and KM. […] This is evidently due to the absence of beta-carbonyl modifying enzymes in module 3 as verified by the fact that removal of NADPH, (which is required for the activity of such modules) from the reaction mixture of (N-ERL-M6+TE) also results in a lowering of the kcat.

[7] = Cell-free synthesis of triketides from diketide thioester by single module constructs; type: biochemical; conditions: purified protein, after 30 minutes
Protocol: as §1, §2

[8] = target: T3, (5)M3+TE; assay: Tetraketide lactone 2 formation, coincubation of donor module with (5)M3+TE; type: biochemical
Protocol: (§3) Assays of M2 and M3+TE contained 1.0 μM M2 and 0.4-4 μM M3+TE, 7 mM NDK, 0.5 mM ^14C-methylmalonyl-CoA (specific activity reduced to 3.4 mCi/mmol), 4 mM NADPH, 440 mM sodium phosphate, 1 mM EDTA, 2.5 mM DTT, and 20% w/v glycerol, pH 7.2, in 70 μL. Assays of M2(4) and (5)M3+TE were identical, except they contained 0.5 μM M2(4), 0.5-5 μM (5)M3+TE, and 0.4 mM ^14C-methylmalonyl-CoA (specific activity reduced to 6.2 mCi/mmol). The concentration of M2(4) was limiting in order to facilitate its saturation with (5)M3+TE. The reactions were prewarmed at 30° C. and initiated by the addition of the methylmalonyl-CoA. As described above, 20 μL aliquots were removed at various time points and processed. Extracts loaded onto TLC plates were separated using either 80% ethyl acetate in hexanes or 5% methanol in dichloromethane, both of which allowed identification of the tetraketide lactone 2 and the triketide lactones 3 and 4.
(§4) For tetraketide formation, the rate of production of tetraketide was recorded for varying concentrations of M3+TE [or (5)M3+TE] at a fixed concentration of M2 [or M2(4)] and saturating concentrations of substrates. By fitting the rate dependence of tetraketide to a saturation curve, the maximal velocity (νmax) of tetraketide production was determined, and was assumed to represent the case where every M2 homodimer was productively associated with an M3+TE homodimer. Thus, the affinity of this protein-protein interaction could be calculated from the rate of tetraketide formation, as represented in Equation 1 ν=kcat[M2-M3] (1) ([M2], [M3], and [M2-M3] refer to the concentrations of M2, unbound M3+TE, and the M2/M3+TE complex, respectively). Since [M2-M3] is related to the KD of M2 and M3+TE as shown in Equation 2, [formula] which can be rearranged to yield Equation 3, [formula] where [M2]0=total concentration of M2, the velocity of tetraketide production can be defined relative to the KD: [formula] where ν=kcat[M2-M3] and νmax=kcat[M2]0. […]

[9] = target: T4, M3+TE; assay: Tetraketide lactone 2 formation, coincubation of donor module with M3+TE; type: biochemical
Protocol: as §3, §4

[10] = Kinetic analysis of individual modules with natural diketide (NDK); type: biochemical; conditions: NDK as substrate, 30° C., saturating NADPH and methylmalonyl-CoA
Protocol: In Vitro Polyketide Production. Assays of individual modules contained 1.0 μM protein, 1-10 mM N-acetylcysteamine thioester of the “natural” (2S,3R)-2-methyl-3-hydroxypentanoic acid diketide (NDK) (1), 4 mM NADPH, 440 mM sodium phosphate, 1 mM EDTA, 2.5 mM dithiothreitol (DTT), and 20% w/v glycerol, pH 7.2, in 80 μL. Reactions with M2 or M2(4) included 0.3 mM ^14C-methylmalonyl-CoA (specific activity adjusted to 10.4 mCi/mmol), and those with M3+TE or (5)M3+TE included 0.5 mM ^14C-methylmalonyl-CoA (specific activity reduced to 1.1 mCi/mmol). [M2(4) refers to a derivative of M2 in which the C-terminal linker has been replaced with its counterpart from module 4, whereas (5)M3 refers to a derivative of M3 in which the N-terminal linker has been replaced with its counterpart from module 5 (see FIG. 4).] […] Product formation was quantified by comparison with standards of the labeled methylmalonyl-CoA. […]
Kinetic Analysis. For individual modules, the steady-state turnover number was determined from the time course of triketide formation, normalized to the concentration of protein. The dependence of the rate on substrate concentration was measured by varying the concentration of NDK while maintaining saturating levels of NADPH and methylmalonyl-CoA.

CCC(O)C(C)C(=O)SCCNC(C)=O (stereo not drawn) [2b]
kcat (elongation rate constant), NAC thioester substrate [1]: 0.00033 s⁻¹ | incorporation of NAC thioester (qualitative) [2]: substrates for the three modules | incorporation of NAC thioester (qualitative) [3]: readily incorporated and elongated | incorporation of NAC thioester (qualitative) [4]: readily incorporated and elongated

CCC(O)C(C)C(=O)SCCNC(C)=O (stereo not drawn) [2c]
incorporation of NAC thioester (qualitative) [2]: no turnover

CCC(O)C(C)C(=O)SCCNC(C)=O (stereo not drawn) [2d]
incorporation of NAC thioester (qualitative) [2]: no turnover

DEBS1: first protein of 6-deoxyerythronolide B synthase, loading module and extender modules 1 and 2
Kd ([5]; Gokhale et al. 1999, read-out: KD, previously reported value): 2.6 µM | rate of formation of the same tetraketide, earlier measurement ([5]; Pieper et al. 1997): 0.23 min^−

ERL − M2 + TE: module 2+TE carrying the upstream 39 amino acids (N-ERL) from module 5
Km ([6]; diketide to triketide): 4.6 ± 0.4 mM | kcat × 100 ([6]; diketide to triketide): 8 ± 0.6 min^−1 | Triketide Formed [7]: Yes | Triketide Formed ([7]; listed as (N-ERL-M2+TE)): able to produce the triketide product

ERL − M6 + TE: module 6+TE carrying the upstream 39 amino acids (N-ERL) from module 5
Km ([6]; (− NADPH)): 4.1 ± 0.4 mM | kcat × 100 ([6]; (− NADPH)): 4.5 ± 0.7 min^−1 | Km ([6]; diketide to triketide): 4.3 ± 0.4 mM | kcat × 100 ([6]; diketide to triketide): 9.5 ± 0.6 min^−1 | Triketide Formed [7]: Yes | Triketide Formed ([7]; listed as (N-ERL-M6+TE)): able to produce the triketide product

M2(4): derivative of M2 containing the C-terminal linker of DEBS module 4
kcat (saturating rate) of tetraketide lactone 2 formation ([8]; fixed donor, variable (5)M3+TE): 0.0123 ± 0.001 s⁻¹ and 0.0123 s⁻¹ | Kd ([8]; from saturation curve): 2.1 ± 0.4 µM | highest rate constants that could be measured, tetraketide lactone 2 ([9]; mismatched linker pair): 0.02 to 0.03 min⁻¹ | kcat [10]: ~0.0005 s⁻¹

M2: module 2 of DEBS, thioesterase replaced with the natural C-terminal linker for module 2
highest rate constants that could be measured, tetraketide lactone 2 ([8]; mismatched linker pair): 0.02 to 0.03 min⁻¹ | Kd ([9]; estimated from saturation curve): 1.1 ± 0.1 µM | kcat (maximum / saturating rate constant) of tetraketide lactone 2 formation ([9]; fixed donor, variable M3+TE, 7 mM NDK): 0.0045 ± 0.00017 s⁻¹ and 0.0045 s⁻¹ | kcat [10]: ~0.00033 s⁻¹

M5 + TE: single module 5 of DEBS fused to the thioesterase (TE) domain
Km ([6]; diketide to triketide): 4.7 ± 0.4 mM | kcat × 100 ([6]; diketide to triketide): 7.5 ± 0.7 min^−1 | Triketide Formed [7]: Yes | Triketide Formed ([7]; listed as (M5+TE)): expected triketides were formed

Reference: US7001748B2, “Methods of making polyketides using hybrid polyketide synthases” (The Board of Trustees of the Leland Stanford Junior …, priority 1999, dated 2006)
